Substitutions are numbered along the chain they refer to. Values belong to the binder of their own block, whether it stands above or below them.
Key:
[1] = target: T1, cynomolgus monkey FLT3 (cFLT3) expressed on RMA cells (cynomolgus monkey, UniProt A0A2K5VQ48 27-993); assay: flow cytometry on RMA-cFLT3 cells, anti-human IgG secondary antibody, fold over background (FOB)
T1 construct: whole, on cells; also called RMA-cFLT3; cynomolgus FLT3
T1 sequence: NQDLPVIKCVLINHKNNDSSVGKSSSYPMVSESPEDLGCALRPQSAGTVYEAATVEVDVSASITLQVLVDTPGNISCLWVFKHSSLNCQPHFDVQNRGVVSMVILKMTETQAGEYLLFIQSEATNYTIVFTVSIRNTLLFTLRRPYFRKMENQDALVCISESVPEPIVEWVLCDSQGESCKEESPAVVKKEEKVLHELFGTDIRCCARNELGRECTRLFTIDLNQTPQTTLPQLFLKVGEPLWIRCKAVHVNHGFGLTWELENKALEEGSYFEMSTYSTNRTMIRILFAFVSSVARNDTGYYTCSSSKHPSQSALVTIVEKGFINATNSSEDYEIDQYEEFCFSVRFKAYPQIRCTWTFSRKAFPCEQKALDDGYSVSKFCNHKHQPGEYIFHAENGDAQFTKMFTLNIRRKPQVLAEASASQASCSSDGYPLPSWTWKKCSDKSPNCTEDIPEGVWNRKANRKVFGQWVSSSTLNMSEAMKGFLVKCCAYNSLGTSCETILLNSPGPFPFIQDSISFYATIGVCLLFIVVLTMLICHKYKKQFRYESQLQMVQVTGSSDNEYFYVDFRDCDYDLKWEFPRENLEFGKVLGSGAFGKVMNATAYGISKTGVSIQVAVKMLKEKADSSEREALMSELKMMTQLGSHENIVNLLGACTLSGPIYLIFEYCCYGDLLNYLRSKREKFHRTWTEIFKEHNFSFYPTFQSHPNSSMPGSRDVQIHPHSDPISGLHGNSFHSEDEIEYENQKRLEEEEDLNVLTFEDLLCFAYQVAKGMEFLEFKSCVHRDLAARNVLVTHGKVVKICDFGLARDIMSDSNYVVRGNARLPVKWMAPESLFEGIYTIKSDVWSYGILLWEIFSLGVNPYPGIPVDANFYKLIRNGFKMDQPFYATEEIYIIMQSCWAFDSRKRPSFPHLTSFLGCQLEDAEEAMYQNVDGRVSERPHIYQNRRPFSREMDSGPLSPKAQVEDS
Description: (§1) Isogenic cell lines ectopically expressing human and cynomolgus monkey FLT3 were used to assess cross-reactivity between human and cynomolgus monkey FLT3. […] cancer cell line RMA expressing hFLT3 or cFLT3 was used to assess tumor antigen binding of FLT3-targeting TriNKET and parental mAb. The human AML cell lines MOLM-13 and MV4-11 and the human ALL cell line REH were used to assess binding ability of the TriNKET or parental mAb. In particular, MOLM-13 cells and MV4-11 cells, which expressed FLT3-T227M and FLT3-ITD, respectively, were used to assess the ability of the FLT3-targeting TriNKET and parental mAb to bind mutant FLT3.
(§2) The cells were then incubated with a fluorophore conjugated anti-human IgG secondary antibody and were analyzed by flow cytometry. The mean fluorescence intensity (MFI) values were normalized to secondary antibody only controls to obtain fold over background (FOB) values.

[2] = target: T2, human FLT3 (hFLT3) expressed on cells (human, UniProt P36888 27-993); assay: flow cytometry on REH cells, anti-human IgG secondary antibody, fold over background (FOB)
T2 construct: whole, on cells; One molecule for all cell lines that carry human FLT3; also called RMA-hFLT3; FLT3 on REH cells
T2 sequence (looked up): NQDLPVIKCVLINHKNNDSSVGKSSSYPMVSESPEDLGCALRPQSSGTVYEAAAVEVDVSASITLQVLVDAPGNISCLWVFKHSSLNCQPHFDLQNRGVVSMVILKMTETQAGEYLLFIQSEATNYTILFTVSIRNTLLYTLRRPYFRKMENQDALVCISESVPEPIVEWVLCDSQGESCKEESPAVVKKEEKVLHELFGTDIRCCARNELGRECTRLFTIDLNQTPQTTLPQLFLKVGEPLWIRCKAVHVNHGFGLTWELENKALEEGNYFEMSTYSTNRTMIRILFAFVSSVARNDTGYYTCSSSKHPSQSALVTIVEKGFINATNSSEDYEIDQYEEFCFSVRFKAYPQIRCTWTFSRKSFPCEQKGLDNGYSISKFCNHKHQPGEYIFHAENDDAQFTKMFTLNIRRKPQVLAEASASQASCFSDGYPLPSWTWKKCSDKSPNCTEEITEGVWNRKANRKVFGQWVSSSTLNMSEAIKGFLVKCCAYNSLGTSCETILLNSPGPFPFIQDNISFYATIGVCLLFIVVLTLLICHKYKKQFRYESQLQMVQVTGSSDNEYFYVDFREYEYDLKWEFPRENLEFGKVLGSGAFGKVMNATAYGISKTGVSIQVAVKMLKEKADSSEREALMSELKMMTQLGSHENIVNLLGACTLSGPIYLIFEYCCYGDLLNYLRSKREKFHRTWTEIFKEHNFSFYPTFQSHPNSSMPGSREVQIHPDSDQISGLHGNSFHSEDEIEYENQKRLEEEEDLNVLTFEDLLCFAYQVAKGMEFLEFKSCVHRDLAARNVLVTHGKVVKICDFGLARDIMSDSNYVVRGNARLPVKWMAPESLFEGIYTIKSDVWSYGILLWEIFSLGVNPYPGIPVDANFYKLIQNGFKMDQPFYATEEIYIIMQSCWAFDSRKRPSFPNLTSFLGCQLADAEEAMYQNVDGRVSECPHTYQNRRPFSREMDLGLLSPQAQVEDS
Description: as §1, §2

[3] = target: T3, FLT3-ITD expressed on MV4-11 cells (human, UniProt P36888 27-543); assay: flow cytometry on MV4-11 cells (FLT3-ITD), anti-human IgG secondary antibody, gMFI
T3 construct: whole, on cells; the ITD itself is not described; also called hFLT3-ITD; FLT3 with the ITD mutation
T3 sequence (looked up): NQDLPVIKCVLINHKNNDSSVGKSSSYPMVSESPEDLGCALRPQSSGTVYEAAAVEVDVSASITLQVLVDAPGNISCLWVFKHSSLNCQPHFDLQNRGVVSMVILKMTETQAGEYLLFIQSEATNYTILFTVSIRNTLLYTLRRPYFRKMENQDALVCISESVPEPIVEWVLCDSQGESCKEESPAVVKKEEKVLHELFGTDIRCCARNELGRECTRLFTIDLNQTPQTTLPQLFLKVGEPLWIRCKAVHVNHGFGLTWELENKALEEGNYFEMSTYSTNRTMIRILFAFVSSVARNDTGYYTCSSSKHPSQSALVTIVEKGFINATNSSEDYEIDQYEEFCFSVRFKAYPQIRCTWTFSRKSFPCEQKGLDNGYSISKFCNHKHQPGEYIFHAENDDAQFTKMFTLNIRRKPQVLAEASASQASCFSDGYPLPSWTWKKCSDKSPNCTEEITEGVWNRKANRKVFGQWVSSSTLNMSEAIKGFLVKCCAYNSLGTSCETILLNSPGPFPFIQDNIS
Description: as §1, §2

[4] = target: T2, human FLT3 (hFLT3) expressed on cells; assay: flow cytometry on RMA-hFLT3 cells, anti-human IgG secondary antibody, fold over background (FOB)
Description: as §1, §2

[5] = target: T4, FLT3-T227M expressed on MOLM-13 cells (human, UniProt P36888 27-993); assay: flow cytometry on MOLM-13 cells (FLT3-T227M), anti-human IgG secondary antibody, gMFI
T4 construct: whole, on cells; also called hFLT3-T227M; FLT3 with T227M mutation
T4 sequence (looked up): T2 sequence (looked up) with T201M
Description: as §1, §2

EC50 (read off the curve) [1]: ~1 nM | EC50 (read off the curve) [2]: ~5 nM | EC50 (read off the curve) [3]: ~1 nM | EC50 (read off the curve) [4]: ~1 nM
B1: F3′-GB102 (bispecific antibody, human IgG1, kappa)
chain: DIVMTQSPDSLAVSLGERATINCRASESVDTYGSSFVHWYQQKPGQPPKLLIYLASNLESGVPDRFSGSGSGTDFTLTISSLQAEDVAVYYCQQNNEEPWTFGCGTKVEIKGGGGSGGGGSGGGGSGGGGSQVQLVQSGAEVKKPGASVKVSCKASGYTFTRYVMHWVRQAPGQCLEWMGFINPYNDDTKYNEKFKGRVTITRDTSASTAYMELSSLRSEDTAVYYCARWRQLGSLDSWGQGTTVTVSSGSDKTHTCPPCPAPELLGGPSVFLFPPKPKDTLMISRTPEVTCVVVDVSHEDPEVKFNWYVDGVEVHNAKTKPREEQYNSTYRVVSVLTVLHQDWLNGKEYKCKVSNKALPAPIEKTISKAKGQPREPRVYTLPPCRDELTKNQVSLTCLVKGFYPSDIAVEWESNGQPENNYKTTPPVLVSDGSFTLYSKLTVDKSRWQQGNVFSCSVMHEALHNHYTQKSLSLSPG
heavy: EVQLVESGGGLVKPGGSLRLSCAASGFTFSSYSMNWVRQAPGKGLEWVSSISSSSSYIYYADSVKGRFTISRDNAKNSLYLQMNSLRAEDTAVYYCARGAPIGAAAGWFDPWGQGTLVTVSSASTKGPSVFPLAPSSKSTSGGTAALGCLVKDYFPEPVTVSWNSGALTSGVHTFPAVLQSSGLYSLSSVVTVPSSSLGTQTYICNVNHKPSNTKVDKKVEPKSCDKTHTCPPCPAPELLGGPSVFLFPPKPKDTLMISRTPEVTCVVVDVSHEDPEVKFNWYVDGVEVHNAKTKPREEQYNSTYRVVSVLTVLHQDWLNGKEYKCKVSNKALPAPIEKTISKAKGQPREPQVCTLPPSRDELTENQVSLTCLVKGFYPSDIAVEWESNGQPENNYKTTPPVLDSDGSFFLYSWLTVDKSRWQQGNVFSCSVMHEALHNHYTQKSLSLSPG
light: DIQMTQSPSSVSASVGDRVTITCRASQGISSWLAWYQQKPGKAPKLLIYAASSLQSGVPSRFSGSGSGTDFTLTISSLQPEDFATYYCQQGVSFPRTFGGGTKVEIKRTVAAPSVFIFPPSDEQLKSGTASVVCLLNNFYPREAKVQWKVDNALQSGNSQESVTEQDSKDSTYSLSSTLTLSKADYEKHKVYACEVTHQGLSSPVTKSFNRGEC
notes: also called FLT3-targeting TriNKET

EC50 (read off the curve) [1]: ~0.6 nM | EC50 (read off the curve) [2]: ~1 nM | EC50 (read off the curve) [5]: ~2 nM | EC50 (read off the curve) [4]: ~0.5 nM
B2: GB102 monoclonal antibody in the human IgG1 format (antibody, V domains shown)
VH: QVQLVQSGAEVKKPGASVKVSCKASGYTFTRYVMHWVRQAPGQRLEWMGFINPYNDDTKYNEKFKGRVTITRDTSASTAYMELSSLRSEDTAVYYCARWRQLGSLDSWGQGTTVTVSS
VL: DIVMTQSPDSLAVSLGERATINCRASESVDTYGSSFVHWYQQKPGQPPKLLIYLASNLESGVPDRFSGSGSGTDFTLTISSLQAEDVAVYYCQQNNEEPWTFGGGTKVEIK
notes: also called parental mAb

— patent publication US20240117054A1 (DRAGONFLY THERAPEUTICS, published 2024)
